Molecular target: the molecule itself
Assay: SEC; last purification step of TraM on Superdex 200 Increase 10/300 in 20 mM Tris-HCl pH 7.5, 100 mM NaCl

B1: TraM (F plasmid) (natural protein, E. coli F plasmid, UniProt P10026 1-127, looked up)
chain: MAKVNLYISNDAYEKINAIIEKRRQEGAREKDVSFSATASMLLELGLRVHEAQMERKESAFNQTEFNKLLLECVVKTQSSVAKILGIESLSPHVSGNSKFEYANMVEDIREKVSSEMERFFPKNDDE
notes: TraM accessory protein of the F plasmid; synthetic traM gene in the NcoI and HindIII sites of pET28a; In the relaxosome only an AlphaFold model was docked into low-resolution density; also called TraM tetramer; source: E. coli C41 (DE3), purified (ammonium sulphate, HiTrap Heparin, resource Q, HiTrap Blue, Superdex 200 SEC)
binding result: binds
